Reference: paper PMC11905881, “Incorporation of polymerizable linkers into aptamers for high-affinity nanoscale molecularly imprinted polymer hybrids: analysis of positional selectivity†”

Tests used:
[1] = target: trypsin (UniProt P00760); experiment: SPR; conditions: embedded in imprinted polymer nanoparticle, SPR: PBST (10 mM phosphate buffered saline, pH 7.4, 0.01% Tween 20), 25 °C, nanoparticles immobilized on carboxymethyl dextran Au chips, protein 4-64 nM, n = 3
[2] = target: lysozyme (UniProt P00698 19-147); experiment: SPR; lysozyme-imprinted polymer hybrid; SPR: PBST (10 mM phosphate buffered saline, pH 7.4, 0.01% Tween 20), 25 °C; nanoparticles immobilized on carboxymethyl dextran Au chips, protein 4-64 nM; n = 3; conditions: protein: commercial
lysozyme, sequence (P00698 19-147): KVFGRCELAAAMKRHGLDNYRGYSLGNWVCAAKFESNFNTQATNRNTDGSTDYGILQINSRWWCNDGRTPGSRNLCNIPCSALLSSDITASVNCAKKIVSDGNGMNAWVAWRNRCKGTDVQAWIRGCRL

trypsin, sequence (P00760 24-246): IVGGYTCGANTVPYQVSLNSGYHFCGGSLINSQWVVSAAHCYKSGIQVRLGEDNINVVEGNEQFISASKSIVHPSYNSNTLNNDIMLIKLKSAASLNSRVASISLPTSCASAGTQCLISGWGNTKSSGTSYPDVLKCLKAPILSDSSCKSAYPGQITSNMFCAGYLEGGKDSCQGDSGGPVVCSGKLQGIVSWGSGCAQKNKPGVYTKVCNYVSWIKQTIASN

For “ATCTACGAATTCATCAGGGCTAAAGAGTGCAGAGTTACTTAG [AptaMIP-1 oligo]”, the Kd ([1]; six carboxy-dT (ester or amide, polymerizable), throughout) was 4.68 µM.

“ATCTACGAATTCATCAGGGCTAAAGAGTGCAGAGTTACTTAG [AptaMIP-2 oligo]” gave a Kd ([1]; four carboxy-dT, evenly spaced, no central linker) of 2.33 µM.

For “ATCTACGAATTCATCAGGGCTAAAGAGTGCAGAGTTACTTAG [AptaMIP-3 oligo]”, the Kd ([1]; three carboxy-dT, both ends and centre) was 9.75 µM.

Work on “ATCTACGAATTCATCAGGGCTAAAGAGTGCAGAGTTACTTAG [AptaMIP-4 oligo]” yielded a Kd ([1]; three carboxy-dT near centre (9 bases free at 3', 14 at 5')) of 9.87 µM.

“ATCTACGAATTCATCAGGGCTAAAGAGTGCAGAGTTACTTAG [AptaMIP-5 oligo]” showed a Kd ([1]; two carboxy-dT, one at each end (positions 1 and 6 of Fig. 1)) of 8.95 µM.

In the case of “ATCTACGAATTCATCAGGGCTAAAGAGTGCAGAGTTACTTAG [AptaMIP-6 oligo]”, the Kd ([1]; one carboxy-dT at 3' end) is reported as 4.68 µM.

Work on “ATCTACGAATTCATCAGGGCTAAAGAGTGCAGAGTTACTTAG [AptaMIP-7 oligo]” yielded a Kd ([1]; one carboxy-dT at 5' end) of 4.89 µM.

With “ATCTACGAATTCATCAGGGCTAAAGAGTGCAGAGTTACTTAG [AptaMIP-8 oligo]” the Kd ([1]; one central carboxy-dT) was 4.17 µM.

B1: AptaMIP-1 oligo (ssDNA)
DNA: ATCTACGAATTCATCAGGGCTAAAGAGTGCAGAGTTACTTAG
modifications: six carboxy-dT (ester or amide, polymerizable), throughout; embedded in imprinted polymer nanoparticle
B1 showed a Kd [2] of 0.00128 µM.

B2: AptaMIP-3 oligo (ssDNA)
DNA: ATCTACGAATTCATCAGGGCTAAAGAGTGCAGAGTTACTTAG
modifications: three carboxy-dT, both ends and centre; embedded in imprinted polymer nanoparticle
Work on B2 yielded a Kd [2] of 0.0012 µM.

B3: AptaMIP-4 oligo (ssDNA)
DNA: ATCTACGAATTCATCAGGGCTAAAGAGTGCAGAGTTACTTAG
modifications: three carboxy-dT near centre (9 bases free at 3', 14 at 5'); embedded in imprinted polymer nanoparticle
With B3 the Kd [2] was 0.0427 µM.
